Test results as given in PMC9388496.
pKd: −log10 of the molar value. Values belong to the substance of their own block, whether it stands above or below them.

Experiments:
[1] = target: FcRn coupled to the resin of the affinity chromatography column (UniProt P55899); experiment: analytical FcRn affinity chromatography; protein (1 mg/ml, alone or preincubated with cognate Ag) injected on a column with FcRn-coupled resin at pH 5.5 (20 mM MES, 140 mM NaCl), eluted by a linear pH gradient to pH 8.8 (20 mM Tris-HCl, 140 mM NaCl) over 110 min
[2] = target: anti-NIP IgG1 (human | mouse); experiment: SPR; Biacore T200; IgG1, Fc or ABTs immobilised (~400 RU) on CM5 by amine coupling; monomeric His-tagged FcRn (2000-1.95 nM) injected at pH 5.5 (67 mM phosphate, 0.15 M NaCl, 0.005% Tween20), 50 μl/min; 1:1 Langmuir binding model
[3] = target: bevacizumab (Avastin) (human); experiment: as above
[4] = target: IgG1-derived Fc fragment (human); experiment: as above
aflibercept (Eylea) = aflibercept (Eylea) (UniProt P17948); experiment: as above
[5] = target: adalimumab (Humira) (human); experiment: as above
etanercept (Enbrel) = etanercept (Enbrel) (UniProt P20333); experiment: as above
[6] = target: infliximab (Remicade) (human); experiment: as above
[7] = target: VEGF-165 (VEGF-A165, Sino Biological) (UniProt P15692); experiment: SPR (Biacore T200); settings: pH 5.5 vs 7.4, 0.15 M NaCl, 67 mM phosphate, the same buffer adjusted to pH 7.4 with 1 M NaOH
VEGF-165 (VEGF-A165, Sino Biological), sequence (P15692 whole entry, the tested form may be a part): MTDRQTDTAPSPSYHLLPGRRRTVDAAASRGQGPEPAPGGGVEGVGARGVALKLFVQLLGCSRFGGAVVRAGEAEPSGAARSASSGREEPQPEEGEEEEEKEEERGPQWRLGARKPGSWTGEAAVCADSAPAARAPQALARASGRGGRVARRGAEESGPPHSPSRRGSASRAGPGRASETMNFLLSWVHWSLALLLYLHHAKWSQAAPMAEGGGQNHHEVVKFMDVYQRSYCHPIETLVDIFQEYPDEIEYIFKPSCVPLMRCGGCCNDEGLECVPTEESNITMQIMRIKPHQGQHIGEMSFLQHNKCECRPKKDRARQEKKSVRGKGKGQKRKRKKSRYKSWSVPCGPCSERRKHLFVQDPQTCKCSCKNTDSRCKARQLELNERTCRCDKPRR

[8] = target: Truncated monomeric His-tagged FcRn (UniProt P55899)
[9] = target: Truncated monomeric His-tagged FcRn (UniProt P55899); remark: listed apart in the source

aflibercept (Eylea) (from UniProt P17948 129-229; P35968 1-764) (Fc fusion), sequence (P17948 other isoform, or with tags, fused parts or gaps): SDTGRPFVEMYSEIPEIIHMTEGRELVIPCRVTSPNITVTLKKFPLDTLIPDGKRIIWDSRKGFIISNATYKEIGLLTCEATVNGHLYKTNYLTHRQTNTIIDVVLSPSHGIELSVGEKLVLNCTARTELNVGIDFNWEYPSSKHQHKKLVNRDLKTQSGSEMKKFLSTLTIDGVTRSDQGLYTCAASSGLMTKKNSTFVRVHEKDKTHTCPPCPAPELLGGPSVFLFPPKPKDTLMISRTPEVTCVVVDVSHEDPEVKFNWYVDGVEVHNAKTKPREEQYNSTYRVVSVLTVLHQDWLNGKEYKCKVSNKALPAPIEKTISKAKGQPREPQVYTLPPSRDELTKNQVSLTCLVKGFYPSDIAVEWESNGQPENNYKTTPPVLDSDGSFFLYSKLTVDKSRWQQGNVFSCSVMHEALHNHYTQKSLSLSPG

Substance: infliximab (Remicade) (antibody)
elution peak pH [1]: 7.15 pH

Substance: Bevacizumab (Avastin)
on-rate (sensorgram comparison), fold change pH 5.5 over pH 7.4 [7]: acidic pH enhanced the on-rate more than 5-fold

Substance: anti-NIP IgG1 Fc-engineered variant M252Y/S254T/T256E/H433K/N434F (antibody)
cellular uptake in HERA (HMEC-1-FcRn cells) after 2 h incubation, relative to non-engineered anti-NIP IgG1 [8]: 15 fold

Substance: Aflibercept (Eylea), VEGFR1 D2-VEGFR2 D3-IgG1 Fc fusion
on-rate (sensorgram comparison), fold change pH 5.5 over pH 7.4 [7]: acidic pH enhanced the on-rate more than 5-fold

Substance: IgG1-derived Fc fragment (domain or fragment)
reduction of the recycling of 400 nM anti-NIP IgG1 (m4) by titrated Fc fragment (6400-1 nM) in HERA, HMEC-1-FcRn cells preloaded with IVIg, uptake at pH 6.0 [9]: 32.9 nM | elution peak pH [1]: 7.13 pH

More lines, now with the values ahead:

elution peak pH [1]: 7.21 pH
Substance: adalimumab (Humira) (antibody)

elution peak pH [1]: 7.01 pH
Substance: aflibercept (Eylea) (from UniProt P17948 129-229; P35968 1-764) (Fc fusion)

pKd [2]: 6.48 | pKd [3]: 6.42 | koff [3]: 0.001 s⁻¹ | kon [3]: 32000 M⁻¹ s⁻¹ | pKd [4]: 6.64 | pKd (aflibercept (Eylea)): 6.46 | koff (aflibercept (Eylea)): 0.001 s⁻¹ | kon (aflibercept (Eylea)): 30000 M⁻¹ s⁻¹ | pKd [5]: 6.37 | koff [5]: 0.001 s⁻¹ | kon [5]: 42000 M⁻¹ s⁻¹ | pKd (etanercept (Enbrel)): 6.42 | koff (etanercept (Enbrel)): 0.001 s⁻¹ | kon (etanercept (Enbrel)): 31000 M⁻¹ s⁻¹ | pKd [6]: 6.51 | koff [6]: 0.002 s⁻¹ | kon [6]: 35000 M⁻¹ s⁻¹
Substance: Truncated monomeric His-tagged FcRn (from UniProt P55899 24-365) (receptor)

elution peak pH [1]: 6.88 pH
Substance: etanercept (Enbrel) (from UniProt P20333 23-257) (Fc fusion)

elution peak pH [1]: 7.2 pH
Substance: bevacizumab (Avastin) (antibody)
